Experimental data from publication PMC7999107.

Columns and labels:
Conditions in all cases: reference: wild type mice; sites S89
14-3-3 epsilon (14-3-3ε) [1] = target: 14-3-3 epsilon (14-3-3ε) (UniProt P62259); experiment: anti-14-3-3ε IP, p300 immunoblot
14-3-3 epsilon (14-3-3ε) [2] = target: 14-3-3 epsilon (14-3-3ε) (UniProt P62259); experiment: anti-p300 IP, 14-3-3ε immunoblot
β-catenin = β-catenin (UniProt Q02248); experiment: anti-p300 IP, β-catenin immunoblot, nuclear extract

binding against the reference (14-3-3 epsilon (14-3-3ε) [1]): weaker
binding against the reference (14-3-3 epsilon (14-3-3ε) [2]): weaker
binding against the reference (β-catenin): weaker
Substance: p300 (from UniProt B2RWS6) p300 S89A knock-in mice
